From patent US20200407442A1 (WUXI BIOLOGICS IRELAND, published 2020)
Changes are numbered by the printed parent chain.

T1: human LAG-3-ECD.D12.mFc mutant P43A (human, UniProt P18627 37-252)
T1 construct: Alanine scanning mutant; construct limits as for m26
T1 chain: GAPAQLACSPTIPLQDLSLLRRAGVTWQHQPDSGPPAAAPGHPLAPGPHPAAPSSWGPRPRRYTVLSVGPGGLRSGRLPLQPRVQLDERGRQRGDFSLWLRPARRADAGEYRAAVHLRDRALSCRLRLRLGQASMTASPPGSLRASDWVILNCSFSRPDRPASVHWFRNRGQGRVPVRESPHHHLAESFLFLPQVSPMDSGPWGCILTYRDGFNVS

T2: human LAG-3-ECD.D12.mFc mutant G130A (human, UniProt P18627 37-252)
T2 construct: Alanine scanning mutant; construct limits as for m26
T2 chain: T1 chain with A7P, G94A

T3: human LAG-3-ECD.D12.mFc mutant R163A (human, UniProt P18627 37-252)
T3 construct: Alanine scanning mutant; construct limits as for m26
T3 chain: T1 chain with A7P, R127A

T4: human LAG-3-ECD.D12.mFc mutant D155A (human, UniProt P18627 37-252)
T4 construct: Alanine scanning mutant; construct limits as for m26
T4 chain: T1 chain with A7P, D119A

T5: mFc-tagged LAG-3 protein (human, UniProt P18627 30-450)
T5 construct: also called human LAG-3 ECD with mouse Fc tag
T5 sequence: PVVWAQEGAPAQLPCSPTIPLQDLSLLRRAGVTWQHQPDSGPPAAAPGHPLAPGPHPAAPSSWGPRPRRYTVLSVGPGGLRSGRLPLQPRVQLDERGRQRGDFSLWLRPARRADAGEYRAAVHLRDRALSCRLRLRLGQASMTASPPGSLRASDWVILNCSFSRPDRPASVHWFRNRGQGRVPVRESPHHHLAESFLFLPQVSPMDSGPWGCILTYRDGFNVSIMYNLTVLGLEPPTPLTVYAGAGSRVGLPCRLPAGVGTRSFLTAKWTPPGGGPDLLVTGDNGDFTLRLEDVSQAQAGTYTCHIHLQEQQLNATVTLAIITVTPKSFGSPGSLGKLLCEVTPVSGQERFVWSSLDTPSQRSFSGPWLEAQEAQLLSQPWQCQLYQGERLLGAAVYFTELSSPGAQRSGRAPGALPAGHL

T6: human LAG-3-ECD.D12.mFc mutant W92A (human, UniProt P18627 37-252)
T6 construct: Alanine scanning mutant; construct limits as for m26
T6 chain: T1 chain with A7P, W56A

B1: 3.40.19-uAb-IgG4L (antibody, V domains shown)
VH: QLQLQESGPGLVKPSETLSLTCTVSGDSISSTSYYWGWIRQPPGKGLEWIGSFYYSGSTYYNPSLKSRVTISVDTSKNQFSLKLNSVTAADTAVYYCARMQLWSYDVDVWGQGTTVTVSS
VL: QSALTQPASVSGSPGQSITISCTGTSSDVGGYDYVAWYQQHPGKVPKLMIYDVSERPSGVSNRFSGSKSGNTASLTISGLQAEDEADYYCSSYTSTTTLVVFGGGTKLSVL
notes: Fully human antibody from OMT rats; IgG4 lambda by its name; also called 3.40.19-uAb-hIgG4L
B2: 1.53.3-uAb-IgG4k (antibody, V domains shown)
VH: QVQLQQWGAGLLKPSETLSLTCGVYGGSFSGYYWSWIRQPPGMGLEWIGEINHRGNTNYNPSLKSRVTISEDTSKNQFSLRLSSVTAADTAVYFCTRGEDYSDYDYYGDFWGQGTLVTVSS
VL: EIVLTQSPATLSLSQGERATLSCRASQSISSYLAWYQQKPGQAPRLLIYAASNRATGIPARFSGSGSGTDFTLTISSLEPEDFAIYYCQQRSNWPLTFGGGTKVEIK
notes: Fully human antibody from OMT rats; IgG4 kappa by its name

Tests used:
[1] = target: T1, human LAG-3-ECD.D12.mFc mutant P43A; assay: ELISA, antibody coated, LAG-3 D12.mFc mutant in supernatant, normalised to control mutants
How it was run: (§1)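 Antibody 1.53.3-uAb-IgG4k or 3.40.19-uAb-hIgG4L coated at 2 μg/mL, then exposed to supernatant containing quantified LAG-3 D12.mFc mutants. Detection with HRP anti-mFc (1:5000). Absorbance normalized to mean of control mutants; binding fold change <0.75 set as epitope cutoff.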

[2] = target: T2, human LAG-3-ECD.D12.mFc mutant G130A; assay: as above
How it was run: as §1

[3] = target: T3, human LAG-3-ECD.D12.mFc mutant R163A; assay: as above
How it was run: as §1

[4] = target: T4, human LAG-3-ECD.D12.mFc mutant D155A; assay: as above
How it was run: as §1

mFc-tagged LAG-3 protein [5] = target: T5, mFc-tagged LAG-3 protein; assay: FACS competition: blocks mFc-tagged LAG-3 binding to MHC-II on Raji cells
Method: Antibodies were serially diluted in 1% BSA-PBS and incubated with mFc-tagged LAG-3 protein at 4° C. for 30 min. The mixture was transferred into the 96-well plates seeded with Raji cells. Goat anti-mouse IgG Fc-PE antibody was used to detect the binding of LAG-3 protein to Raji cells. The MFI was evaluated by flow cytometry and analyzed by the software FlowJo (version 7.6.1).

mFc-tagged LAG-3 protein [6] = target: T5, mFc-tagged LAG-3 protein; assay: ELISA competition: blocks mFc-tagged LAG-3 binding to coated Galectin-3
Method: 96-well plates were coated with human LSECtin or Galectin-3 at 0.5 μg/mL overnight at 4° C., respectively. Antibodies were serially diluted in 1% BSA-PBS and mixed with mFc-tagged LAG-3 protein. After blocking and washing, the mixture was transferred to the plates and incubated at room temperature for 1 h. The plates were then washed and subsequently incubated with corresponding secondary antibody for 60 min. After washing, TMB substrate was added and the color reaction was stopped by 2M HCl. The absorbance at 450 nm was read using a microplate reader.

[7] = target: T6, human LAG-3-ECD.D12.mFc mutant W92A; assay: ELISA, antibody coated, LAG-3 D12.mFc mutant in supernatant, normalised to control mutants
How it was run: as §1

Binder | Fold Change [1] | Fold Change [2] | Fold Change [3] | Fold Change [4] | EC50 (mFc-tagged LAG-3 protein [5]) [nM] | EC50 (mFc-tagged LAG-3 protein [6]) [nM] | Fold Change [7]
B1 | 0.494 | 0.102 | 0.655 | 0.701 | 0.67 | 0.56 | 
B2 |  |  |  |  | 0.8 | 0.74 | 0.554
